Values quoted from earlier work, collected in publication PMC6731456.

Biological target: Apelin receptor (Homo sapiens) (UniProt P35414)
UniProt P35414, sequence (P35414 whole entry): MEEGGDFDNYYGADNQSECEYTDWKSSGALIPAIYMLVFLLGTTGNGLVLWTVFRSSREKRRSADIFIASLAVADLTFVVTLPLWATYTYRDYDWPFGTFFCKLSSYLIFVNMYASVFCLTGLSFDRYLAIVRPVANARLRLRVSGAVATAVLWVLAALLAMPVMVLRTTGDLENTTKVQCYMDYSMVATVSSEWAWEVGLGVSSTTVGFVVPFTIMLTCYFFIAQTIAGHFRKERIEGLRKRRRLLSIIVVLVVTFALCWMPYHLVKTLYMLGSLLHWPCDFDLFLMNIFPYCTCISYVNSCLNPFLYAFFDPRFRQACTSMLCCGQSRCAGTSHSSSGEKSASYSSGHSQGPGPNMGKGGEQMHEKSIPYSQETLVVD

Ki: 0.39 µM
Substance: Protamine (from UniProt P69014)
